Assay results taken from the supplement of paper PMC10567573.

B1: CLPTM1 (parent)
chain: MNLHVYISEHEHFTDFNATSALFW

Variants of: B1
Experiment: protein stability index of a GFP-peptide fusion (GPS, HEK-293T) (PSI 1-6); higher = more stable
Details: c terminus: a fixed tail appended
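Also: lentivirally expressed fusions sorted by FACS into six bins by GFP to DsRed ratio, PSI derived from sequencing read proportions per bin multiplied by bin number.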

| Variant | protein stability index |
| --- | --- |
| MNLHVYISEHEHFTDFNATSALFK [W24K] | 1.88 |
| MNLHVYISEHEHFTDFNATSALFI [W24I] | 1.93 |
| MNLHVYISEHEHFTDFNATSALFD [W24D] | 3.34 |
| MNLHVYISEHEHFTDFNATSALFC [W24C] | 1.83 |
| MNLHVYISEHEHFTDFNATSALFN [W24N] | 2.98 |
| MNLHVYISEHEHFTDFNATSALFE [W24E] | 4.09 |
| MNLHVYISEHEHFTDFNATSALFH [W24H] | 1.75 |
| MNLHVYISEHEHFTDFNATSALFF [W24F] | 4.25 |
| MNLHVYISEHEHFTDFNATSALFL [W24L] | 4.15 |
| MNLHVYISEHEHFTDFSATSALFW [N17S] | 2.44 |
| MNLHVYISEHEHFTDFTATSALFW [N17T] | 3.19 |
| MNLHVYISEHEHFTDFEATSALFW [N17E] | 3.66 |
| MNLHVYISEHEHFTDFIATSALFW [N17I] | 3.01 |
| MNLHVYISEHEHFTDFFATSALFW [N17F] | 2.72 |
| MNLHVYISEHEHFTDFAATSALFW [N17A] | 2.59 |
| MNLHVYISEHEHFTDFPATSALFW [N17P] | 3.96 |
| MNLHVYISEHEHFTDFRATSALFW [N17R] | 2.01 |
| MNLHVYISEHEHFTDFHATSALFW [N17H] | 2.13 |
| MNLHVYISEHEHFTDFVATSALFW [N17V] | 2.75 |
| MNLHVYISEHEHFTDFGATSALFW [N17G] | 2.38 |
| MNLHVYISEHEHFTDFKATSALFW [N17K] | 3.02 |
| MNLHVYISEHEHFTDFCATSALFW [N17C] | 2.72 |
| MNLHVYISEHEHFTDGNATSALFW [F16G] | 2.76 |
| MNLHVYISEHEHFTDHNATSALFW [F16H] | 3.52 |

| Variant | protein stability index |
| --- | --- |
| MNLHVYISEHEHFTDDNATSALFW [F16D] | 1.79 |
| MNLHVYISEHEHFTDSNATSALFW [F16S] | 2.19 |
| MNLHVYISEHEHFTDWNATSALFW [F16W] | 2.71 |
| MNLHVYISEHEHFTDNNATSALFW [F16N] | 2.56 |
| MNLHVYISEHEHFTDRNATSALFW [F16R] | 1.62 |
| MNLHVYISEHEHFTDKNATSALFW [F16K] | 2.96 |
| MNLHVYISEHEHFTDTNATSALFW [F16T] | 1.87 |
| MNLHVYISEHEHFTDYNATSALFW [F16Y] | 2.26 |
| MNLHVYISEHEHFTDENATSALFW [F16E] | 2.87 |
| MNLHVYISEHEHFTDINATSALFW [F16I] | 1.71 |
| MNLHVYISEHEHFIDFNATSALFW [T14I] | 2.23 |
| MNLHVYISEHEHFYDFNATSALFW [T14Y] | 1.62 |
| MNLHVYISEHEHFADFNATSALFW [T14A] | 3.39 |
| MNLHVYISEHEHFEDFNATSALFW [T14E] | 3.86 |
| MNLHVYISEHEHFMDFNATSALFW [T14M] | 4.02 |
| MNLHVYISEHEHFCDFNATSALFW [T14C] | 3.04 |
| MNLHVYISEHEHFKDFNATSALFW [T14K] | 3.17 |
| MNLHVYISEHEHFPDFNATSALFW [T14P] | 4.65 |
| MNLHVYISEHEHFVDFNATSALFW [T14V] | 1.81 |
| MNLHVYISEHEHFQDFNATSALFW [T14Q] | 2.62 |
| MNLHVYISEHEHFSDFNATSALFW [T14S] | 3.26 |
| MNLHVYISEHEHFHDFNATSALFW [T14H] | 4.34 |
| MNLHVYISEHEHTTDFNATSALFW [F13T] | 1.95 |
| MNLHVYISEHEHKTDFNATSALFW [F13K] | 4.65 |

| Variant | protein stability index |
| --- | --- |
| MNLHVYISEHEHVTDFNATSALFW [F13V] | 2.63 |
| MNLHVYISEHEHCTDFNATSALFW [F13C] | 2.51 |
| MNLHVYISEHEHPTDFNATSALFW [F13P] | 2.63 |
| MNLHVYISEHEHATDFNATSALFW [F13A] | 3.39 |
| MNLHVYISEHEHQTDFNATSALFW [F13Q] | 2.2 |
| MNLHVYISEHEHSTDFNATSALFW [F13S] | 2.4 |
| MNLHVYISEHEHHTDFNATSALFW [F13H] | 2.67 |
| MNLHVYISEHEHWTDFNATSALFW [F13W] | 4.9 |
| MNLHVYISEHEHETDFNATSALFW [F13E] | 3.52 |
| MNLHVYISEHEHRTDFNATSALFW [F13R] | 2.5 |
| MNLHVYISEHEHGTDFNATSALFW [F13G] | 2.42 |
| MNLHVYISEHEHLTDFNATSALFW [F13L] | 4.51 |
| MNLHVYISEHEHNTDFNATSALFW [F13N] | 3.8 |
| MNLHVYISQHEHFTDFNATSALFW [E9Q] | 2.96 |
| MNLHVYISLHEHFTDFNATSALFW [E9L] | 1.96 |
| MNLHVYISGHEHFTDFNATSALFW [E9G] | 4.46 |
| MNLHVYISTHEHFTDFNATSALFW [E9T] | 2.48 |
| MNLHVYISHHEHFTDFNATSALFW [E9H] | 4.25 |
| MNLHVYISNHEHFTDFNATSALFW [E9N] | 3.59 |
| MNLHVYISKHEHFTDFNATSALFW [E9K] | 2.52 |
| MNLHVYISPHEHFTDFNATSALFW [E9P] | 1.5 |
| MNLHVYISFHEHFTDFNATSALFW [E9F] | 2.28 |
| MNLHVYISVHEHFTDFNATSALFW [E9V] | 3.22 |
| MNLHVYISYHEHFTDFNATSALFW [E9Y] | 2.5 |

| Variant | protein stability index |
| --- | --- |
| MNLHVYISAHEHFTDFNATSALFW [E9A] | 2.82 |
| MNLHVYISMHEHFTDFNATSALFW [E9M] | 3.76 |
| MNLHVYISEHEHFTDFNATSVLFW [A21V] | 2.4 |
| MNLHVYISEHEHFTDFNATSHLFW [A21H] | 2.09 |
| MNLHVYISEHEHFTDFNATSGLFW [A21G] | 3.69 |
| MNLHVYISEHEHFTDFNATSELFW [A21E] | 2.62 |
| MNLHVYISEHEHFTDFNATSNLFW [A21N] | 2.35 |
| MNLHVYISEHEHFTDFNATSKLFW [A21K] | 3.78 |
| MNLHVYISEHEHFTDFNATSCLFW [A21C] | 3.19 |
| MNLHVYISEHEHFTDFNATSTLFW [A21T] | 2.67 |
| MNLHVYISEHEHFTDFNATSILFW [A21I] | 2.59 |
| MNLHVYISEHEHFTDFNATSFLFW [A21F] | 1.95 |
| MNLHVYISEHMHFTDFNATSALFW [E11M] | 3.46 |
| MNLHVYISEHDHFTDFNATSALFW [E11D] | 2.39 |
| MNLHVYISEHVHFTDFNATSALFW [E11V] | 4.02 |
| MNLHVYISEHCHFTDFNATSALFW [E11C] | 3.77 |
| MNLHVYISEHIHFTDFNATSALFW [E11I] | 2.42 |
| MNLHVYISEHAHFTDFNATSALFW [E11A] | 1.98 |
| MNLHVYISEHTHFTDFNATSALFW [E11T] | 2.47 |
| MNLHVYISEHYHFTDFNATSALFW [E11Y] | 3.67 |
| MNLHVYISEHFHFTDFNATSALFW [E11F] | 3.56 |
| MNLHVYISEHQHFTDFNATSALFW [E11Q] | 2.87 |
